Experimental findings from patent WO1989007452A1 are described below.

The target of this test is Campath-1 antigen (partially purified, obtained from a glycolipid extract from human spleen) (human) (UniProt P31358). Briefly: direct binding ELISA on partially purified Campath-1 antigen coated on microtitre wells; detected with biotin-labelled anti-rat IgG2b; antibody concentration at 50% binding. A general note: An ELISA detects its analyte on a solid surface through an enzyme-linked reagent.

The EC50 is the concentration that produces a half-maximal response. Low values mean higher potency in that assay, high ones lower potency in that assay. The substance “RaVHCAMP-RaIgG2B (cloned rat heavy chain variable domain of YTH 34.5HL on rat IgG2b constant domains, with rat kappa light chain) (from UniProt P20761 1-333) (antibody)” had an EC50 of 1.01 µg/mL.
